Assay results reported in article PMC11098500 (PLOS Pathogens, 2024).

Target: SARS-CoV-2 RBD (residues 319-529), His-tagged (SARS-CoV-2 (prototypic strain), UniProt P0DTC2 319-529)
Experiment: SPR
Details: both partners purified

B1: raccoon dog ACE2 ectodomain (residues 1-614), Fc-tagged (Fc fusion)
chain: QSTEDLVNTFLEKFNYEAEELSYQSSLASWNYNTNITDENLQKMNNAGAKWSAFYEEQSKLAKTYPLEEIQDSTVKRQLRALQHSGSSVLSADKNQRLNTILNSMSTIYSTGKACNPSNPQECLLLEPGLDDIMENSKDYNERLWAWEGWRSEVGKQLRPLYEEYVALKNEMARANNYEDYGDYWRGDYEEEWENGYNYSRNQLIDDVEHTFTQIMPLYQHLHAYVRTKLMDTYPSYISPTGCLPAHLLGDMWGRFWTNLYPLTVPFGQKPNIDVTNAMVNQSWDARKIFKEAEKFFVSVGLPNMTQGFWENSMLTEPSDSWKVVCHPTAWDLGRGDFRIKMCTKVTMDDFLTAHHEMGHIQYDMAYAAQPFLLRNGANEGFHEAVGEIMSLSAATPNHLKNIGLLPPSFFEDSETEINFLLKQALTIVGTLPFTYMLEKWRWMVFKGEIPKDQWMKTWWEMKRNIVGVVEPVPHDETYCDPASLFHVANDYSFIRYYTRTIYQFQFQEALCQIAKHEGPLHKCDISNSSEAGQKLLEMLKLGKSKPWTYALEIVVGAKNMDVRPLLNYFEPLFTWLKEQNRNSFVGWNTDWSPYAD
B1 gave a Kd of 399 nM.
